What was measured:
[1] = molecular target: T1, NDC80 complex (Ndc80, Nuf2, Spc24, Spc25), full length, unmodified (Homo sapiens, UniProt O14777 1-642; Q9BZD4 1-464; Q8NBT2 1-197; Q9HBM1 1-224); assay: SEC; MIS12C variant mixed with NDC80C at 4 µM each; 20 mM HEPES pH 7.8, 150 mM NaCl, 0.5 mM TCEP; Superose 6; fractions on SDS-PAGE; conditions: both partners purified
T1 construct: Ndc80, subunit of human NDC80C; Nuf2, subunit of human NDC80C; Spc24, subunit of human NDC80C; Spc25, subunit of human NDC80C; The DS tag on Nuf2 is TEV cleavable; a cleavage is not described; Ndc80 and Nuf2 were in the cryo-EM sample but not seen at high resolution; also called wild-type NDC80; source: High-5 insect cells (baculovirus), purified (Strep-Tactin, Resource Q, Superdex 200); copies: …

NDC80C = assay: SEC assessment of MIS12C mutants binding to NDC80C; design: species or system Homo sapiens; conditions: MIS12C mutant + wild-type NDC80 at 4 µM each; 20 mM HEPES pH 7.8, 150 mM NaCl, 0.5 mM TCEP; Superose 6; SDS-PAGE; at least two repeats
Experimental: Assessment of substitutions in the MIS12C–NDC80C interfaces
To test the effect of substitutions in the MIS12C–NDC80C interfaces, either wild-type MIS12C or three MIS12C mutants (MIS12C^Nsl1-E219R V220R F221A, MIS12C^Dsn1-P332W R334A L336R, MIS12C^Nsl1-E219R V220R F221A, Dsn1-P332W R334A L336R) were mixed with wild-type NDC80 at 4 µM each in a buffer of 20 mM HEPES (pH 7.8), 150 mM NaCl and 0.5 mM TCEP, and 50 µl was loaded onto a Superose 6 size-exclusion column (Cytiva).
Extended Data Fig. 7 Biochemical characterization of MIS12C:NDC80C interactions. a Coomassie blue-stained SDS-PAGE gels of the MIS12C:NDC80C interaction reconstitutions. MIS12C (WT), MIS12C with E219/RV220R/F221A substitutions in Nsl1 (MIS12C^Nsl1 E219/RV220R/F221A) and MIS12C with P332W/R334A/L336R substitutions in Dsn1 (MIS12C^Dsn1 P332W/R334A/L336R) were tested for binding to full-length, unmodified NDC80C. The binding experiments were repeated at least two independent times with identical results. The gels are aligned according to the fraction number of the protein sample eluted from the size exclusion column. b SEC elution chromatograms of all of the experiments described in (a). c. Comparison of the Spc24:Spc25 interaction with peptides from MIS12C and CENP-T (PDB ID: 3VZA ref. [29]). Source data

T1 sequence (O14777 whole entry, chain 1 of 4): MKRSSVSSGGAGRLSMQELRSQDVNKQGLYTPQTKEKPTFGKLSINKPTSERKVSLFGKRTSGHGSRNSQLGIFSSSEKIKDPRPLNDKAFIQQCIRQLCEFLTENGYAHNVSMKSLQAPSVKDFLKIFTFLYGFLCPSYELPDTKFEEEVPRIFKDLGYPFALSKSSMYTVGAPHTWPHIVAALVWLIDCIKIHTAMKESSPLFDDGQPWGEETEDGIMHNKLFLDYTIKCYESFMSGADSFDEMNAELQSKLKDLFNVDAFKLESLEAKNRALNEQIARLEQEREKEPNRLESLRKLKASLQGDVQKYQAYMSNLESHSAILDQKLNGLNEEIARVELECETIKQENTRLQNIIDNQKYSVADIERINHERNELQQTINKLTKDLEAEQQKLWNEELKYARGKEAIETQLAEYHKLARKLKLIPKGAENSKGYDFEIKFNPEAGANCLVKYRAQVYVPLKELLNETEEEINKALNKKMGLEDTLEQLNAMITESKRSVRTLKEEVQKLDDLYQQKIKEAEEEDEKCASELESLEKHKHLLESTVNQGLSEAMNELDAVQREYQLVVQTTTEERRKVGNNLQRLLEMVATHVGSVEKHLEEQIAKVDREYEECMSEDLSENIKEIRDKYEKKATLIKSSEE
T1 sequence (Q9BZD4 whole entry, chain 2 of 4): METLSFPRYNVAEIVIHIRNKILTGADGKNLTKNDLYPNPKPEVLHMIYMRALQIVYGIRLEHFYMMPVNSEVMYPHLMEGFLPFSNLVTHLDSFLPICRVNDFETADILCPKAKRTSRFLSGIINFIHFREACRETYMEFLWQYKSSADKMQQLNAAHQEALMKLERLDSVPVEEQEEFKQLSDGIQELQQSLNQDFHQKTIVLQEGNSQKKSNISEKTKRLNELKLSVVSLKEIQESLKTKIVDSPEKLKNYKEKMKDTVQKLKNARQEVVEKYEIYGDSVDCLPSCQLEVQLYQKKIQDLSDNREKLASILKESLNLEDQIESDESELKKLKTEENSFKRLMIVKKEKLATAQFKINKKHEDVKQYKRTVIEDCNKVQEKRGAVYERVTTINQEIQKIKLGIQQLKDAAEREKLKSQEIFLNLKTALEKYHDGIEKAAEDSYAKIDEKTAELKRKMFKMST
T1 sequence (Q8NBT2 whole entry, chain 3 of 4): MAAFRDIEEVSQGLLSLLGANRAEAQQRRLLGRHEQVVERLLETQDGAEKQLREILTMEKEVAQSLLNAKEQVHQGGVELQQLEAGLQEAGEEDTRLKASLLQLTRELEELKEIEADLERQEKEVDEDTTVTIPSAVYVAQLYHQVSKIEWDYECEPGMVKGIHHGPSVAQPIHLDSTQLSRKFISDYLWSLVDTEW
T1 sequence (Q9HBM1 whole entry, chain 4 of 4): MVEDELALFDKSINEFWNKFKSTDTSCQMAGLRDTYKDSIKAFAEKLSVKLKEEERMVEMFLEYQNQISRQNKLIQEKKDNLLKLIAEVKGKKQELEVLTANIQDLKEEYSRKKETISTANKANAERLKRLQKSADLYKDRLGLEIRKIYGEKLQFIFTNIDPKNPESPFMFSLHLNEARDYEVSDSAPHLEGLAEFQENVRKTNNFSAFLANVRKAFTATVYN

Molecule	binding result [1]	MIS12C–NDC80C interaction by SEC, in words (NDC80C)
MIS12 complex (Mis12, Pmf1, Dsn1, Nsl1), wild type, full length (complex, Homo sapiens, Mis12, subunit of human MIS12C; Pmf1, subunit of human MIS12C; Dsn1, subunit of human MIS12C; Nsl1, subunit of human MIS12C; The DS tag on Pmf1 is TEV cleavable; a cleavage is not described; also called MIS12C (WT); wild-type MIS12C; source: High-5 insect cells (baculovirus), purified (Strep-Tactin, Resource S, Superdex 200); copies: + + +) chain 1: MSVDPMTYEAQFFGFTPQTCMLRIYIAFQDYLFEVMQAVEQVILKKLDGIPDCDISPVQIRKCTEKFLCFMKGHFDNLFSKMEQLFLQLILRIPSNILLPEDKCKETPYSEEDFQHLQKEIEQLQEKYKTELCTKQALLAELEEQKIVQAKLKQTLTFFDELHNVGRDHGTSDFRESLVSLVQNSRKLQNIRDNVEKESKRLKIS chain 2: MAEASSANLGSGCEEKRHEGSSSESVPPGTTISRVKLLDTMVDTFLQKLVAAGSYQRFTDCYKCFYQLQPAMTQQIYDKFIAQLQTSIREEISDIKEEGNLEAVLNALDKIVEEGKVRKEPAWRPSGIPEKDLHSVMAPYFLQQRDTLRRHVQKQEAENQQLADAVLAGRRQVEELQLQVQAQQQAWQALHREQRELVAVLREPE chain 3: MTSVTRSEIIDEKGPVMSKTHDHQLESSLSPVEVFAKTSASLEMNQGVSEERIHLGSSPKKGGNCDLSHQERLQSKSLHLSPQEQSASYQDRRQSWRRASMKETNRRKSLHPIHQGITELSRSISVDLAESKRLGCLLLSSFQFSIQKLEPFLRDTKGFSLESFRAKASSLSEELKHFADGLETDGTLQKCFEDSNGKASDFSLEASVAEMKEYITKFSLERQTWDQLLLHYQQEAKEILSRGSTEAKITEVKVEPMTYLGSSQNEVLNTKPDYQKILQNQSKVFDCMELVMDELQGSVKQLQAFMDESTQCFQKVSVQLGKRSMQQLDPSPARKLLKLQLQNPPAIHGSGSGSCQ chain 4: MAGSPELVVLDPPWDKELAAGTESQALVSATPREDFRVRCTSKRAVTEMLQLCGRFVQKLGDALPEEIREPALRDAQWTFESAVQENISINGQAWQEASDNCFMDSDIKVLEDQFDEIIVDIATKRKQYPRKILECVIKTIKAKQEILKQYHPVVHPLDLKYDPDPAPHMENLKCRGETVAKEISEAMKSLPALIEQGEGFSQVLRMQPVIHLQRIHQEVFSSCHRKPDAKPENFITQIETTPTETASRKTSDMVLKRKQTKDCPQRKWYPLRPKKINLDT	binds	
MIS12 complex with Nsl1 E219R V220R F221A (complex, Homo sapiens, Mis12, subunit of human MIS12C; Pmf1, subunit of human MIS12C; Dsn1, subunit of human MIS12C; Nsl1, subunit of human MIS12C, E219R V220R F221A; also called MIS12C^(Nsl1-E219R V220R F221A); MIS12C^(Nsl1 E219/RV220R/F221A); source: High-5 insect cells (baculovirus), purified (Strep-Tactin, Resource S, Superdex 200); copies: + + +) chain 1: MSVDPMTYEAQFFGFTPQTCMLRIYIAFQDYLFEVMQAVEQVILKKLDGIPDCDISPVQIRKCTEKFLCFMKGHFDNLFSKMEQLFLQLILRIPSNILLPEDKCKETPYSEEDFQHLQKEIEQLQEKYKTELCTKQALLAELEEQKIVQAKLKQTLTFFDELHNVGRDHGTSDFRESLVSLVQNSRKLQNIRDNVEKESKRLKIS chain 2: MAEASSANLGSGCEEKRHEGSSSESVPPGTTISRVKLLDTMVDTFLQKLVAAGSYQRFTDCYKCFYQLQPAMTQQIYDKFIAQLQTSIREEISDIKEEGNLEAVLNALDKIVEEGKVRKEPAWRPSGIPEKDLHSVMAPYFLQQRDTLRRHVQKQEAENQQLADAVLAGRRQVEELQLQVQAQQQAWQALHREQRELVAVLREPE chain 3: MTSVTRSEIIDEKGPVMSKTHDHQLESSLSPVEVFAKTSASLEMNQGVSEERIHLGSSPKKGGNCDLSHQERLQSKSLHLSPQEQSASYQDRRQSWRRASMKETNRRKSLHPIHQGITELSRSISVDLAESKRLGCLLLSSFQFSIQKLEPFLRDTKGFSLESFRAKASSLSEELKHFADGLETDGTLQKCFEDSNGKASDFSLEASVAEMKEYITKFSLERQTWDQLLLHYQQEAKEILSRGSTEAKITEVKVEPMTYLGSSQNEVLNTKPDYQKILQNQSKVFDCMELVMDELQGSVKQLQAFMDESTQCFQKVSVQLGKRSMQQLDPSPARKLLKLQLQNPPAIHGSGSGSCQ chain 4: MAGSPELVVLDPPWDKELAAGTESQALVSATPREDFRVRCTSKRAVTEMLQLCGRFVQKLGDALPEEIREPALRDAQWTFESAVQENISINGQAWQEASDNCFMDSDIKVLEDQFDEIIVDIATKRKQYPRKILECVIKTIKAKQEILKQYHPVVHPLDLKYDPDPAPHMENLKCRGETVAKEISEAMKSLPALIEQGEGFSQVLRMQPVIHLQRIHQRRASSCHRKPDAKPENFITQIETTPTETASRKTSDMVLKRKQTKDCPQRKWYPLRPKKINLDT	binds	
MIS12 complex with Dsn1 P332W R334A L336R (complex, Homo sapiens, Mis12, subunit of human MIS12C; Pmf1, subunit of human MIS12C; Dsn1, subunit of human MIS12C, P332W R334A L336R; Nsl1, subunit of human MIS12C; also called MIS12C^(Dsn1-P332W R334A L336R); MIS12C^(Dsn1 P332W/R334A/L336R); source: High-5 insect cells (baculovirus), purified (Strep-Tactin, Resource S, Superdex 200); copies: + + +) chain 1: MSVDPMTYEAQFFGFTPQTCMLRIYIAFQDYLFEVMQAVEQVILKKLDGIPDCDISPVQIRKCTEKFLCFMKGHFDNLFSKMEQLFLQLILRIPSNILLPEDKCKETPYSEEDFQHLQKEIEQLQEKYKTELCTKQALLAELEEQKIVQAKLKQTLTFFDELHNVGRDHGTSDFRESLVSLVQNSRKLQNIRDNVEKESKRLKIS chain 2: MAEASSANLGSGCEEKRHEGSSSESVPPGTTISRVKLLDTMVDTFLQKLVAAGSYQRFTDCYKCFYQLQPAMTQQIYDKFIAQLQTSIREEISDIKEEGNLEAVLNALDKIVEEGKVRKEPAWRPSGIPEKDLHSVMAPYFLQQRDTLRRHVQKQEAENQQLADAVLAGRRQVEELQLQVQAQQQAWQALHREQRELVAVLREPE chain 3: MTSVTRSEIIDEKGPVMSKTHDHQLESSLSPVEVFAKTSASLEMNQGVSEERIHLGSSPKKGGNCDLSHQERLQSKSLHLSPQEQSASYQDRRQSWRRASMKETNRRKSLHPIHQGITELSRSISVDLAESKRLGCLLLSSFQFSIQKLEPFLRDTKGFSLESFRAKASSLSEELKHFADGLETDGTLQKCFEDSNGKASDFSLEASVAEMKEYITKFSLERQTWDQLLLHYQQEAKEILSRGSTEAKITEVKVEPMTYLGSSQNEVLNTKPDYQKILQNQSKVFDCMELVMDELQGSVKQLQAFMDESTQCFQKVSVQLGKRSMQQLDPSWAAKRLKLQLQNPPAIHGSGSGSCQ chain 4: MAGSPELVVLDPPWDKELAAGTESQALVSATPREDFRVRCTSKRAVTEMLQLCGRFVQKLGDALPEEIREPALRDAQWTFESAVQENISINGQAWQEASDNCFMDSDIKVLEDQFDEIIVDIATKRKQYPRKILECVIKTIKAKQEILKQYHPVVHPLDLKYDPDPAPHMENLKCRGETVAKEISEAMKSLPALIEQGEGFSQVLRMQPVIHLQRIHQEVFSSCHRKPDAKPENFITQIETTPTETASRKTSDMVLKRKQTKDCPQRKWYPLRPKKINLDT	binds	
Dsn1-P332W R334A L336R mutant: MIS12C with P332W/R334A/L336R substitutions in Dsn1 (protein, left off: double strep II (DS), C-terminal, state not stated) chain 1: MSVDPMTYEAQFFGFTPQTCMLRIYIAFQDYLFEVMQAVEQVILKKLDGIPDCDISPVQIRKCTEKFLCFMKGHFDNLFSKMEQLFLQLILRIPSNILLPEDKCKETPYSEEDFQHLQKEIEQLQEKYKTELCTKQALLAELEEQKIVQAKLKQTLTFFDELHNVGRDHGTSDFRESLVSLVQNSRKLQNIRDNVEKESKRLKIS chain 2: MAEASSANLGSGCEEKRHEGSSSESVPPGTTISRVKLLDTMVDTFLQKLVAAGSYQRFTDCYKCFYQLQPAMTQQIYDKFIAQLQTSIREEISDIKEEGNLEAVLNALDKIVEEGKVRKEPAWRPSGIPEKDLHSVMAPYFLQQRDTLRRHVQKQEAENQQLADAVLAGRRQVEELQLQVQAQQQAWQALHREQRELVAVLREPE chain 3: MTSVTRSEIIDEKGPVMSKTHDHQLESSLSPVEVFAKTSASLEMNQGVSEERIHLGSSPKKGGNCDLSHQERLQSKSLHLSPQEQSASYQDRRQSWRRASMKETNRRKSLHPIHQGITELSRSISVDLAESKRLGCLLLSSFQFSIQKLEPFLRDTKGFSLESFRAKASSLSEELKHFADGLETDGTLQKCFEDSNGKASDFSLEASVAEMKEYITKFSLERQTWDQLLLHYQQEAKEILSRGSTEAKITEVKVEPMTYLGSSQNEVLNTKPDYQKILQNQSKVFDCMELVMDELQGSVKQLQAFMDESTQCFQKVSVQLGKRSMQQLDPSWAAKRLKLQLQNPPAIHGSGSGSCQ chain 4: MAGSPELVVLDPPWDKELAAGTESQALVSATPREDFRVRCTSKRAVTEMLQLCGRFVQKLGDALPEEIREPALRDAQWTFESAVQENISINGQAWQEASDNCFMDSDIKVLEDQFDEIIVDIATKRKQYPRKILECVIKTIKAKQEILKQYHPVVHPLDLKYDPDPAPHMENLKCRGETVAKEISEAMKSLPALIEQGEGFSQVLRMQPVIHLQRIHQEVFSSCHRKPDAKPENFITQIETTPTETASRKTSDMVLKRKQTKDCPQRKWYPLRPKKINLDT		reduced the affinity of MIS12C for NDC80C

— publication PMC11189301, “Structure of the human outer kinetochore KMN network complex” (Nature Structural & Molecular Biology, 2024)
